Test results from the supplement of paper PMC10126150.
± gives the standard deviation of the averaged measurements.

Tested on: ATP
Assay: switch fluorescence ratio, 500 uM ATP over buffer (Cy3 cluster intensity, sum of 5 cycles each) (fold (ratio)); higher = stronger signal-on switching upon ATP binding; sequences stand for … in TCGTCGGCAGCGTCAGATGTGTATAAGAGACAGTTTTTTTTTTTTTTTTTTTTTTTTT…TC
Settings: aptamer strand: ATP DNA aptamer (quencher-CACCTGGGGGAGTATTGCGGAGGAAGG + anchor), 100 nM annealed; ATP concentration: 500 uM
Method in brief: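 For every switch-domain sequence, the fluorescence ratio is the mean of per-cluster values, each being summed target-cycle Cy3 intensity over summed buffer-cycle Cy3 intensity. Clusters outside 100-1000 RFU were excluded. On a modified Illumina MiSeq flow-cell, the Cy3-labelled switching-strand clusters were annealed to 100 nM quencher-labelled ATP aptamer, imaged in selection buffer and then after 15 min with 500 uM ATP at 22 °C. Five such cycles were run, with NaOH stripping and re-annealing between them.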
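Further: ATP exposure 15 min at 22 °C before imaging.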

Point of comparison: TGGTTGGTTG, switch fluorescence ratio 0.988 ± 0.02. Against it:
- TGGTTAATGG — within error, 0.989 ± 0.038
- TGGTTACATG — within error, 1.02 ± 0.014
- TGGTTAGAAT — within error, 0.986 ± 0.024
- TGGTTAGTGT — within error, 1.01 ± 0.057
- TGGTTATGGG — within error, 0.985 ± 0.022
- TGGTTATGTT — within error, 1.02 ± 0.023
- TGGTTATTGT — within error, 0.974 ± 0.032
- TGGTTCGAGA — within error, 0.979 ± 0.025
- TGGTTCGTTA — within error, 1 ± 0.05
- TGGTTCGTTT — within error, 0.995 ± 0.055
- TGGTTCTCGA — within error, 0.987 ± 0.012
- TGGTTCTGGG — within error, 0.973 ± 0.013
- TGGTTCTTAA — within error, 1.01 ± 0.041
- TGGTTGCTGA — within error, 1 ± 0.033
- TGGTTGGGTT — within error, 1 ± 0.021
- TGGTTGTACG — within error, 1.01 ± 0.027
- TGGTTGTGCG — higher, 1.04 ± 0.018
- TGGTTGTTGG — within error, 0.95 ± 0.02
- TGGTTTAAAT — within error, 1.04 ± 0.054
- TGGTTTAGCG — within error, 0.964 ± 0.03
- TGGTTTCGGT — within error, 0.9903 ± 0.0017
- TGGTTTGATT — within error, 1.003 ± 0.0064
- TGGTTTGGCG — within error, 1.02 ± 0.18
- TGGTTTGGTG — within error, 0.985 ± 0.034
- TGGTTTTCTG — within error, 1.03 ± 0.051
- TGGTTTTGAT — within error, 1.001 ± 0.0047
- TGGTTTTGC — within error, 1.01 ± 0.023
- TGGTTTTGTT — within error, 1.01 ± 0.058
- TGGTTTTTCC — within error, 1.11 ± 0.12
- TGGTTTTTT — within error, 0.998 ± 0.03
- TGTAAAAAT — within error, 1.01 ± 0.042
- TGTAAAGGGG — within error, 1.01 ± 0.029
- TGTAAATGTG — within error, 1 ± 0.028
- TGTAACTGTG — higher, 1.15 ± 0.028
- TGTAAGGTTT — within error, 1.01 ± 0.024
- TGTAAGTAGG — higher, 1.04 ± 0.025
- TGTAATGGGG — within error, 0.966 ± 0.015
- TGTAATTCTA — within error, 1.011 ± 0.0032
- TGTACCTTTA — within error, 1.04 ± 0.038
- TGTACGGAGG — within error, 1.04 ± 0.057
- TGTACTATGC — within error, 1.06 ± 0.058
- TGTAGAGGGA — within error, 1.005 ± 0.0046
- TGTAGATGGC — within error, 1.03 ± 0.044
- TGTAGATTTT — within error, 0.981 ± 0.011
- TGTAGCCAGT — within error, 1.05 ± 0.07
- TGTAGGGGCT — within error, 0.982 ± 0.026
- TGTAGGTTCT — higher, 1.06 ± 0.051
- TGTAGTCCTT — lower, 0.949 ± 0.015
- TGTAGTTTTT — within error, 0.961 ± 0.025
- TGTATATAGC — within error, 1 ± 0.021
- TGTATATCTA — within error, 1.02 ± 0.025
- TGTATCGTCG — lower, 0.944 ± 0.023
- TGTATGAGGT — within error, 1.02 ± 0.013
- TGTATGATGT — within error, 1.03 ± 0.049
- TGTATTTAAG — within error, 0.97 ± 0.035
- TGTCAAAAAC — within error, 1.28 ± 0.29
- TGTCAAAAAG — within error, 1 ± 0.017
- TGTCACAAGC — within error, 1.02 ± 0.013
- TGTCAGGGTT — within error, 1 ± 0.014
- TGTCAGTCGA — within error, 1.002 ± 0.0036
- TGTCATCTAC — within error, 1.02 ± 0.016
- TGTCATGTAT — within error, 0.987 ± 0.021
- TGTCCGGTGG — within error, 1.01 ± 0.066
- TGTCGACTTG — within error, 0.9716 ± 0.0066
- TGTCGGGATG — within error, 1.01 ± 0.022
- TGTCTACTCT — within error, 1 ± 0.022
- TGTGAAACAA — within error, 1.01 ± 0.03
- TGTGAAACGG — within error, 0.9916 ± 0.0072
- TGTGAAATAG — within error, 1.02 ± 0.028
- TGTGAACGGA — within error, 1.004 ± 0.01
- TGTGAAGGCG — within error, 1.71 ± 1
- TGTGAATCCA — within error, 0.976 ± 0.027
- TGTGAATTCT — within error, 0.993 ± 0.023
- TGTGACAATG — within error, 0.997 ± 0.012
- TGTGACGAAC — higher, 1.23 ± 0.045
- TGTGAGAGGT — within error, 0.995 ± 0.012
- TGTGAGGGGG — within error, 1.01 ± 0.038
- TGTGATCGAC — within error, 1.01 ± 0.018
- TGTGATGAT — within error, 1.01 ± 0.028
- TGTGATGTGG — within error, 1.04 ± 0.083
- TGTGATTGGC — within error, 1.03 ± 0.041
- TGTGATTGTG — within error, 0.967 ± 0.015
- TGTGATTTGT — within error, 0.9702 ± 0.0032
- TGTGCATCT — within error, 1.01 ± 0.015
- TGTGGAATAA — within error, 1.03 ± 0.039
- TGTGGATGGT — within error, 0.956 ± 0.019
- TGTGGCACAT — within error, 1.005 ± 0.0065
- TGTGGCGATT — within error, 1.02 ± 0.016
- TGTGGCGCCA — within error, 0.987 ± 0.04
- TGTGGCGTTT — within error, 1.04 ± 0.059
- TGTGGCTATG — within error, 1.02 ± 0.014
- TGTGGGAAGG — within error, 1.05 ± 0.074
- TGTGGGATAT — within error, 1.05 ± 0.068
- TGTGGGGGCT — within error, 1 ± 0.026
- TGTGGGGGTG — within error, 1.01 ± 0.033
- TGTGGGGTTT — within error, 1 ± 0.057
- TGTGGGTATA — within error, 0.995 ± 0.02
- TGTGGGTCAT — within error, 0.9762 ± 0.0021
- TGTGGGTGGG — within error, 0.978 ± 0.025
